The source of these data is patent US20260001928A1 (CORTERIA PHARMACEUTICALS, priority 2022, published 2026).

*1 amine or outer side, *2 acyl side, *3 side chain or, on linkers, in order; H or OH if unused. Side-chain parts run from the residue outwards. [ ]: non-standard residue; d: D form. The star is where a group is joined. C16 diacid = O=C(O)CCCCCCCCCCCCCCC(=O)*; γGlu = O=C(O)[C@H](CCC(=O)[*:2])N[*:1]; Pentanoyl = CCCCC(=O)*; Aib = CC(C)(N)C(=O)O

For one experiment, the target named is T1, CRF1R receptor (UniProt P34998 24-415, limits assumed).
T1 sequence (looked up): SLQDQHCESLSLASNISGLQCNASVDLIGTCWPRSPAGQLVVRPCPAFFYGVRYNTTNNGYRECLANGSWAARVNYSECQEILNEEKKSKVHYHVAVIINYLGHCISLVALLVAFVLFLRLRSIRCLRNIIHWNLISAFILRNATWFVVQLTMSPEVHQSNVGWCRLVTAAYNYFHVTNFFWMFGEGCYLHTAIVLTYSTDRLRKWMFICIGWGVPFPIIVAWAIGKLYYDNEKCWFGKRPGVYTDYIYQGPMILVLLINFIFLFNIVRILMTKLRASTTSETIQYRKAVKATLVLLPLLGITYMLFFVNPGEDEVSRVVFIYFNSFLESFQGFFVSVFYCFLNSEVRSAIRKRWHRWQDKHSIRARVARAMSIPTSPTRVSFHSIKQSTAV
The experiment is described as follows: cell-based or functional assay.

Experiment [1] deals with human corticotropin-releasing factor 2a (CRF2a receptor) (human), Q13324. The experiment is described as follows: cell-based or functional assay.
Chain of human corticotropin-releasing factor 2a (CRF2a receptor) (human), Q13324 (Q13324 20-411): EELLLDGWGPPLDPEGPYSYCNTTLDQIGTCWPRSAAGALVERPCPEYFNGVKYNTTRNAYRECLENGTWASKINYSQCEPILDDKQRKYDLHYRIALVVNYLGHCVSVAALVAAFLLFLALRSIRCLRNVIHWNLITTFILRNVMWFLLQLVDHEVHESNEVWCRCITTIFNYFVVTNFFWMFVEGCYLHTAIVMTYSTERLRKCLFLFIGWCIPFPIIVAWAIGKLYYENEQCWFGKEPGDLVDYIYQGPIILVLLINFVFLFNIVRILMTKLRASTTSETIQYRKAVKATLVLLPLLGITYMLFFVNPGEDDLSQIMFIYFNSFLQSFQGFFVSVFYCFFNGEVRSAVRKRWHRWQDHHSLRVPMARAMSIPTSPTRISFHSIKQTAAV

B1: SEQ ID NO 166 (peptide)
peptide: Ac-IVLSLD[dV]PIKLK([γGlu-C16 diacid])KILLEQEKQAKQREQAETN[Aib]QILAQV-NH2
SMILES: CC[C@H](C)[C@H](NC(C)=O)C(=O)N[C@H](C(=O)N[C@@H](CC(C)C)C(=O)N[C@@H](CO)C(=O)N[C@@H](CC(C)C)C(=O)N[C@@H](CC(=O)O)C(=O)N[C@@H](C(=O)N1CCC[C@H]1C(=O)N[C@H](C(=O)N[C@@H](CCCCN)C(=O)N[C@@H](CC(C)C)C(=O)N[C@@H](CCCCNC(=O)CC[C@H](NC(=O)CCCCCCCCCCCCCCC(=O)O)C(=O)O)C(=O)N[C@@H](CCCCN)C(=O)N[C@H](C(=O)N[C@@H](CC(C)C)C(=O)N[C@@H](CC(C)C)C(=O)N[C@@H](CCC(=O)O)C(=O)N[C@@H](CCC(N)=O)C(=O)N[C@@H](CCC(=O)O)C(=O)N[C@@H](CCCCN)C(=O)N[C@@H](CCC(N)=O)C(=O)N[C@@H](C)C(=O)N[C@@H](CCCCN)C(=O)N[C@@H](CCC(N)=O)C(=O)N[C@@H](CCCNC(=N)N)C(=O)N[C@@H](CCC(=O)O)C(=O)N[C@@H](CCC(N)=O)C(=O)N[C@@H](C)C(=O)N[C@@H](CCC(=O)O)C(=O)N[C@H](C(=O)N[C@@H](CC(N)=O)C(=O)NC(C)(C)C(=O)N[C@@H](CCC(N)=O)C(=O)N[C@H](C(=O)N[C@@H](CC(C)C)C(=O)N[C@@H](C)C(=O)N[C@@H](CCC(N)=O)C(=O)N[C@H](C(N)=O)C(C)C)[C@@H](C)CC)[C@@H](C)O)[C@@H](C)CC)[C@@H](C)CC)C(C)C)C(C)C
B1: in the experiment with CRF1R receptor, the “Emax (% I)” value came to 5%. In experiment [1], the EC50 [nM] (cAMP) amounted to 0.77 nM.

B2: SEQ ID NO 165 (peptide)
peptide: Ac-IVLSLD[dV]PIKLK([γGlu-C16 diacid])KILLEQEAQKKQREQAETN[Aib]QILAQV-NH2
SMILES: CC[C@H](C)[C@H](NC(C)=O)C(=O)N[C@H](C(=O)N[C@@H](CC(C)C)C(=O)N[C@@H](CO)C(=O)N[C@@H](CC(C)C)C(=O)N[C@@H](CC(=O)O)C(=O)N[C@@H](C(=O)N1CCC[C@H]1C(=O)N[C@H](C(=O)N[C@@H](CCCCN)C(=O)N[C@@H](CC(C)C)C(=O)N[C@@H](CCCCNC(=O)CC[C@H](NC(=O)CCCCCCCCCCCCCCC(=O)O)C(=O)O)C(=O)N[C@@H](CCCCN)C(=O)N[C@H](C(=O)N[C@@H](CC(C)C)C(=O)N[C@@H](CC(C)C)C(=O)N[C@@H](CCC(=O)O)C(=O)N[C@@H](CCC(N)=O)C(=O)N[C@@H](CCC(=O)O)C(=O)N[C@@H](C)C(=O)N[C@@H](CCC(N)=O)C(=O)N[C@@H](CCCCN)C(=O)N[C@@H](CCCCN)C(=O)N[C@@H](CCC(N)=O)C(=O)N[C@@H](CCCNC(=N)N)C(=O)N[C@@H](CCC(=O)O)C(=O)N[C@@H](CCC(N)=O)C(=O)N[C@@H](C)C(=O)N[C@@H](CCC(=O)O)C(=O)N[C@H](C(=O)N[C@@H](CC(N)=O)C(=O)NC(C)(C)C(=O)N[C@@H](CCC(N)=O)C(=O)N[C@H](C(=O)N[C@@H](CC(C)C)C(=O)N[C@@H](C)C(=O)N[C@@H](CCC(N)=O)C(=O)N[C@H](C(N)=O)C(C)C)[C@@H](C)CC)[C@@H](C)O)[C@@H](C)CC)[C@@H](C)CC)C(C)C)C(C)C
As to B2, in the experiment with CRF1R receptor, the “Emax (% I)” value was 14%. Also, in experiment [1], the EC50 [nM] (cAMP) was 0.64 nM.
Ac-IVLSLD[dV]PIKLK([γGlu-C16 diacid])KILLEQEKQK[Aib]QREQAETN[Aib]QILAQV-NH2 [SEQ ID NO 162]: the “Emax (% I)” value with CRF1R receptor was found to be 0%. Also, the EC50 [nM] (cAMP) in experiment [1] was 0.49 nM.

B3: SEQ ID NO 163 (peptide)
peptide: Ac-IVLSLD[dV]PIALK([γGlu-C16 diacid])KILLEQEKQKKQREQAETN[Aib]QILAQV-NH2
SMILES: CC[C@H](C)[C@H](NC(C)=O)C(=O)N[C@H](C(=O)N[C@@H](CC(C)C)C(=O)N[C@@H](CO)C(=O)N[C@@H](CC(C)C)C(=O)N[C@@H](CC(=O)O)C(=O)N[C@@H](C(=O)N1CCC[C@H]1C(=O)N[C@H](C(=O)N[C@@H](C)C(=O)N[C@@H](CC(C)C)C(=O)N[C@@H](CCCCNC(=O)CC[C@H](NC(=O)CCCCCCCCCCCCCCC(=O)O)C(=O)O)C(=O)N[C@@H](CCCCN)C(=O)N[C@H](C(=O)N[C@@H](CC(C)C)C(=O)N[C@@H](CC(C)C)C(=O)N[C@@H](CCC(=O)O)C(=O)N[C@@H](CCC(N)=O)C(=O)N[C@@H](CCC(=O)O)C(=O)N[C@@H](CCCCN)C(=O)N[C@@H](CCC(N)=O)C(=O)N[C@@H](CCCCN)C(=O)N[C@@H](CCCCN)C(=O)N[C@@H](CCC(N)=O)C(=O)N[C@@H](CCCNC(=N)N)C(=O)N[C@@H](CCC(=O)O)C(=O)N[C@@H](CCC(N)=O)C(=O)N[C@@H](C)C(=O)N[C@@H](CCC(=O)O)C(=O)N[C@H](C(=O)N[C@@H](CC(N)=O)C(=O)NC(C)(C)C(=O)N[C@@H](CCC(N)=O)C(=O)N[C@H](C(=O)N[C@@H](CC(C)C)C(=O)N[C@@H](C)C(=O)N[C@@H](CCC(N)=O)C(=O)N[C@H](C(N)=O)C(C)C)[C@@H](C)CC)[C@@H](C)O)[C@@H](C)CC)[C@@H](C)CC)C(C)C)C(C)C
Take B3: in the experiment with CRF1R receptor, the “EC50” value was 190 nM and the “Emax (% I)” value amounted to 53%. Also, in experiment [1], the EC50 [nM] (cAMP) was determined as 0.3 nM.

B4: SEQ ID NO 8 (peptide)
peptide: Pentanoyl-VLSLD[dV]PIKLK([γGlu-C16 diacid])QILLKQERQKKQREQAEKNKQILEQV-NH2
SMILES: CCCCC(=O)N[C@H](C(=O)N[C@@H](CC(C)C)C(=O)N[C@@H](CO)C(=O)N[C@@H](CC(C)C)C(=O)N[C@@H](CC(=O)O)C(=O)N[C@@H](C(=O)N1CCC[C@H]1C(=O)N[C@H](C(=O)N[C@@H](CCCCN)C(=O)N[C@@H](CC(C)C)C(=O)N[C@@H](CCCCNC(=O)CC[C@H](NC(=O)CCCCCCCCCCCCCCC(=O)O)C(=O)O)C(=O)N[C@@H](CCC(N)=O)C(=O)N[C@H](C(=O)N[C@@H](CC(C)C)C(=O)N[C@@H](CC(C)C)C(=O)N[C@@H](CCCCN)C(=O)N[C@@H](CCC(N)=O)C(=O)N[C@@H](CCC(=O)O)C(=O)N[C@@H](CCCNC(=N)N)C(=O)N[C@@H](CCC(N)=O)C(=O)N[C@@H](CCCCN)C(=O)N[C@@H](CCCCN)C(=O)N[C@@H](CCC(N)=O)C(=O)N[C@@H](CCCNC(=N)N)C(=O)N[C@@H](CCC(=O)O)C(=O)N[C@@H](CCC(N)=O)C(=O)N[C@@H](C)C(=O)N[C@@H](CCC(=O)O)C(=O)N[C@@H](CCCCN)C(=O)N[C@@H](CC(N)=O)C(=O)N[C@@H](CCCCN)C(=O)N[C@@H](CCC(N)=O)C(=O)N[C@H](C(=O)N[C@@H](CC(C)C)C(=O)N[C@@H](CCC(=O)O)C(=O)N[C@@H](CCC(N)=O)C(=O)N[C@H](C(N)=O)C(C)C)[C@@H](C)CC)[C@@H](C)CC)[C@@H](C)CC)C(C)C)C(C)C
Turning to B4, in the experiment with CRF1R receptor, the “EC50” value came to 186 nM and the “Emax (% I)” value is 50%. Moreover, the EC50 [nM] (cAMP) in experiment [1] stood at 0.14 nM.

B5: SEQ ID NO 164 (peptide)
peptide: Ac-IVLSLD[dV]PIKLK([γGlu-C16 diacid])AILLEQEKQKKQREQAETN[Aib]QILAQV-NH2
SMILES: CC[C@H](C)[C@H](NC(C)=O)C(=O)N[C@H](C(=O)N[C@@H](CC(C)C)C(=O)N[C@@H](CO)C(=O)N[C@@H](CC(C)C)C(=O)N[C@@H](CC(=O)O)C(=O)N[C@@H](C(=O)N1CCC[C@H]1C(=O)N[C@H](C(=O)N[C@@H](CCCCN)C(=O)N[C@@H](CC(C)C)C(=O)N[C@@H](CCCCNC(=O)CC[C@H](NC(=O)CCCCCCCCCCCCCCC(=O)O)C(=O)O)C(=O)N[C@@H](C)C(=O)N[C@H](C(=O)N[C@@H](CC(C)C)C(=O)N[C@@H](CC(C)C)C(=O)N[C@@H](CCC(=O)O)C(=O)N[C@@H](CCC(N)=O)C(=O)N[C@@H](CCC(=O)O)C(=O)N[C@@H](CCCCN)C(=O)N[C@@H](CCC(N)=O)C(=O)N[C@@H](CCCCN)C(=O)N[C@@H](CCCCN)C(=O)N[C@@H](CCC(N)=O)C(=O)N[C@@H](CCCNC(=N)N)C(=O)N[C@@H](CCC(=O)O)C(=O)N[C@@H](CCC(N)=O)C(=O)N[C@@H](C)C(=O)N[C@@H](CCC(=O)O)C(=O)N[C@H](C(=O)N[C@@H](CC(N)=O)C(=O)NC(C)(C)C(=O)N[C@@H](CCC(N)=O)C(=O)N[C@H](C(=O)N[C@@H](CC(C)C)C(=O)N[C@@H](C)C(=O)N[C@@H](CCC(N)=O)C(=O)N[C@H](C(N)=O)C(C)C)[C@@H](C)CC)[C@@H](C)O)[C@@H](C)CC)[C@@H](C)CC)C(C)C)C(C)C
As to B5, the “Emax (% I)” value with CRF1R receptor is 14%. In experiment [1], the EC50 [nM] (cAMP) was 2.43 nM.

B6: SEQ ID NO 161 (peptide)
peptide: Ac-IVLSLD[dV]PIKLK([γGlu-C16 diacid])KILLEQEKQKAQREQAETN[Aib]QILAQV-NH2
SMILES: CC[C@H](C)[C@H](NC(C)=O)C(=O)N[C@H](C(=O)N[C@@H](CC(C)C)C(=O)N[C@@H](CO)C(=O)N[C@@H](CC(C)C)C(=O)N[C@@H](CC(=O)O)C(=O)N[C@@H](C(=O)N1CCC[C@H]1C(=O)N[C@H](C(=O)N[C@@H](CCCCN)C(=O)N[C@@H](CC(C)C)C(=O)N[C@@H](CCCCNC(=O)CC[C@H](NC(=O)CCCCCCCCCCCCCCC(=O)O)C(=O)O)C(=O)N[C@@H](CCCCN)C(=O)N[C@H](C(=O)N[C@@H](CC(C)C)C(=O)N[C@@H](CC(C)C)C(=O)N[C@@H](CCC(=O)O)C(=O)N[C@@H](CCC(N)=O)C(=O)N[C@@H](CCC(=O)O)C(=O)N[C@@H](CCCCN)C(=O)N[C@@H](CCC(N)=O)C(=O)N[C@@H](CCCCN)C(=O)N[C@@H](C)C(=O)N[C@@H](CCC(N)=O)C(=O)N[C@@H](CCCNC(=N)N)C(=O)N[C@@H](CCC(=O)O)C(=O)N[C@@H](CCC(N)=O)C(=O)N[C@@H](C)C(=O)N[C@@H](CCC(=O)O)C(=O)N[C@H](C(=O)N[C@@H](CC(N)=O)C(=O)NC(C)(C)C(=O)N[C@@H](CCC(N)=O)C(=O)N[C@H](C(=O)N[C@@H](CC(C)C)C(=O)N[C@@H](C)C(=O)N[C@@H](CCC(N)=O)C(=O)N[C@H](C(N)=O)C(C)C)[C@@H](C)CC)[C@@H](C)O)[C@@H](C)CC)[C@@H](C)CC)C(C)C)C(C)C
As for B6, the “Emax (% I)” value in the experiment with CRF1R receptor is 3%. Further, in experiment [1], the EC50 [nM] (cAMP) stood at 0.32 nM.

What is called EC50 is the midpoint of the concentration-response curve.
